The test system of assay [1] is black-tailed marmoset 5T4 ectodomain Fc. Put plainly: Epitope mapping ELISA, 5T4 ectodomain Fc fusions. Also noted: key: +: binding; −: no binding; +/−: partial binding. Format: binding. The method, then:
(§1) To identify the epitopes to which each of the A1, A2, A3, and H8 antibodies bind, ELISA assays were performed using (1) 5T4 ectodomain Fc constructs with deleted or mutated sequences, and (2) 5T4 chimera constructs transiently expressed in COS-1 cells. The ectodomain includes the amino-terminal region, two leucine-rich repeats, and the intervening hydrophilic region. Fusion proteins containing a 5T4 ectodomain and a Fc constant regions from human IgG1 were prepared using mouse 5T4 (amino acids 1-361), rat 5T4 (amino acids 1-361), cynomologous monkey 5T4 (amino acids 1-355), chimpanzee 5T4 (amino acids 1-355), and black-tailed marmoset (amino acids 1-355). The 5T4 chimera constructs are depicted in FIG. 5. The binding results are summarized in Table 5, which indicates specific binding, partial binding, or lack of binding, by each of the H8, A1, A2, and A3 antibodies.

The target in a further assay is T1, rat 5T4 ectodomain Fc (Rattus norvegicus, UniProt Q5PQV5).
T1 construct: rat 5T4 (amino acids 1-361); made in house; host or cells: COS-1 cells (transient)
T1 sequence (Q5PQV5 32-361): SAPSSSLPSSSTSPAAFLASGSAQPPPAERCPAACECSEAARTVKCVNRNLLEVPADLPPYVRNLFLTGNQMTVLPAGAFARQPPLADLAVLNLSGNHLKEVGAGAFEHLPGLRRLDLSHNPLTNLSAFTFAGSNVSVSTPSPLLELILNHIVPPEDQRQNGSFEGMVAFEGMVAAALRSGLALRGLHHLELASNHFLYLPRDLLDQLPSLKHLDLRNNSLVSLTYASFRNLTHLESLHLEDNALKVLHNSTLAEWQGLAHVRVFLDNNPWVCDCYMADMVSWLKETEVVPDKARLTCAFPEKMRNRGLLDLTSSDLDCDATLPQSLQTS
The assay is described as follows: Epitope mapping ELISA, 5T4 ectodomain Fc fusions. Format: binding. More on the design: key: +: binding; −: no binding; +/−: partial binding. The method, then: as §1
For orientation: ELISA stands for enzyme-linked immunosorbent assay.

Another assay addresses T2, human 5T4 ectodomain Fc (Homo sapiens, UniProt Q13641).
T2 construct: Human; 100; 1-355; made in house; host or cells: COS-1 cells (transient)
T2 sequence (Q13641 32-355): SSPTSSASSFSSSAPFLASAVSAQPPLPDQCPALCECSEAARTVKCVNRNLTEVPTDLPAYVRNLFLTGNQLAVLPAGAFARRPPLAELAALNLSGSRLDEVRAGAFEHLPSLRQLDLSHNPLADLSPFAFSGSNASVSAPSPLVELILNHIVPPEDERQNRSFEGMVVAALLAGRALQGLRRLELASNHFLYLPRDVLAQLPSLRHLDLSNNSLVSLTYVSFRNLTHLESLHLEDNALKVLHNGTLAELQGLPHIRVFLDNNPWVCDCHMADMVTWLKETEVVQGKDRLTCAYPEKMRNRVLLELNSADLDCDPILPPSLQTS
Put plainly: Epitope mapping ELISA, 5T4 ectodomain Fc fusions. It is filed as binding. More on the design: key: +: binding; −: no binding; +/−: partial binding. As for the experimental part: as §1

In assay [2] the target is T3, cynomologous monkey 5T4 ectodomain Fc (Macaca fascicularis, UniProt Q4R8Y9, G135A/G313E/S41F).
T3 construct: cynomologous monkey 5T4 (amino acids 1-355); made in house; host or cells: COS-1 cells (transient)
T3 sequence (Q4R8Y9 35-355 S41F/G135A/G313E): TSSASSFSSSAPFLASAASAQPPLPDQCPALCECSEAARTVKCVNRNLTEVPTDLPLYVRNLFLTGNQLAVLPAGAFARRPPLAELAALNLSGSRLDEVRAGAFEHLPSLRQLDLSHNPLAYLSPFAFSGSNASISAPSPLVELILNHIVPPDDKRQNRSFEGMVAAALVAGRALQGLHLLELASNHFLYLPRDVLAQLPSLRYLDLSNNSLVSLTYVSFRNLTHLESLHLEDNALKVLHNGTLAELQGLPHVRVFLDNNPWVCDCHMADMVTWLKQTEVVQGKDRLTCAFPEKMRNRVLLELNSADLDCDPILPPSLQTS
The assay is described as follows: Epitope mapping ELISA, 5T4 ectodomain Fc fusions. Format: binding. More on the design: key: +: binding; −: no binding; +/−: partial binding. As for the experimental part:
as §1

The next assay deals with T4, mouse 5T4 ectodomain Fc (Mus musculus, UniProt Q9Z0L0).
T4 construct: mouse 5T4 (amino acids 1-361); made in house; host or cells: COS-1 cells (transient)
T4 sequence (Q9Z0L0 32-361): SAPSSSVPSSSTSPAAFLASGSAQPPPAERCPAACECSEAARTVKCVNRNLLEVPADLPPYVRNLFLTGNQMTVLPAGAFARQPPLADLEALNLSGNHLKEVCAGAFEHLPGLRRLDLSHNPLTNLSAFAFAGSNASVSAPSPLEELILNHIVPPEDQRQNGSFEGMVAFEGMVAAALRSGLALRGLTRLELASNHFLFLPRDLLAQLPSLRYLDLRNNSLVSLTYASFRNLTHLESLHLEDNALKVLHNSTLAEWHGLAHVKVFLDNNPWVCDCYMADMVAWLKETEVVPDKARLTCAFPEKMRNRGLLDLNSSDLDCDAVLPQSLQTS
The assay is described as follows: Epitope mapping ELISA, 5T4 ectodomain Fc fusions. Also noted: key: +: binding; −: no binding; +/−: partial binding. It is filed as binding. As for the experimental part: as §1

The test system of assay [3] is chimpanzee 5T4 ectodomain Fc. The assay is described as follows: Epitope mapping ELISA, 5T4 ectodomain Fc fusions. Also noted: key: +: binding; −: no binding; +/−: partial binding. It is filed as binding. As for the experimental part:
as §1

Assay [4] deals with T5, human 5T4 ectodomain Fc fusion protein (Homo sapiens, UniProt Q13641).
T5 construct: Human; 100; 1-355; made in house; host or cells: COS-1 cells (transient)
T5 sequence (Q13641 32-355): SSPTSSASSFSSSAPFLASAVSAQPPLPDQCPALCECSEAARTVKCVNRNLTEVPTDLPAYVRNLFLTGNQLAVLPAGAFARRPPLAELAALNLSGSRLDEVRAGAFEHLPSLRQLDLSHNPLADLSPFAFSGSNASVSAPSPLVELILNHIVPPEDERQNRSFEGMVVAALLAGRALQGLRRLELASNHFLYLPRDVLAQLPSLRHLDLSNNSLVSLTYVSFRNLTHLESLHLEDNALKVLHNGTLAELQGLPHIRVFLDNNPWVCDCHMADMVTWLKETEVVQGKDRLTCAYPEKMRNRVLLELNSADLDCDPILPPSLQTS
Put plainly: Competitive binding assay with biotinylated humanized H8 antibody. The settings on record: FIGS. 6A-6B. The source says: FIGS. 6A-6B show graphical results of competitive binding of humanized H8 and each of the indicated antibodies to human 5T4 ectodomain Fc fusion protein. HuH8, humanized H8 antibody; ChiA1, chimeric A1 antibody; ChiA1+C67F, chimeric A1 antibody bearing C67F mutation; ChiA2, chimeric A2 antibody; muA2, murine A2 antibody; ChiA3, chimeric A3 antibody; ChiA3+C91Y, chimeric A3 antibody bearing C91Y mutation, muA3, murine A3 antibody; No Ab, no antibody (control).
In addition to direct binding assays, competitive binding assays were performed using biotinylated humanized H8 antibody and each of the A1, A2, or A3 antibodies. Inhibition of binding to human 5T4 was not observed, supporting that each of A1, A2, and A3 binds to a 5T4 epitope that is distinct from that bound by the H8 antibody.

Chain of black-tailed marmoset 5T4 ectodomain Fc (as listed by the source): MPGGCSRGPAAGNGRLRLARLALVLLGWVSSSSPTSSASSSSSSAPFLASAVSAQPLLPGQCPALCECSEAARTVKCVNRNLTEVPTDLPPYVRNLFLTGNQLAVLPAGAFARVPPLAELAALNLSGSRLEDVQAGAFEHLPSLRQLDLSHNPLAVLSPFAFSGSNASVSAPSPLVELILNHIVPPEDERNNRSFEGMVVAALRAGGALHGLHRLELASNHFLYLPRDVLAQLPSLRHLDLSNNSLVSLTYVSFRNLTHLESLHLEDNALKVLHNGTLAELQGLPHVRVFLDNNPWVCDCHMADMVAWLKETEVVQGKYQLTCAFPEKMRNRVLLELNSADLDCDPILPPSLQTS

B1: A2: murine anti-5T4 monoclonal antibody (IgG2b heavy chain); VH residues 19-135 of SEQ ID NO:6, VL residues 23-130 of SEQ ID NO:8 (antibody, listed as Mus musculus, V domains shown)
VH: MEWRIFLFILSGTAGVHSQVQLQQSRPELVKPGASVKMSCKASGYTFTDYVISWVKQRTGQGLEWIGEIYPGSNSIYYNEKFKGRATLTADKSSSTAYMQLSSLTSEDSAVYFCAMGGNYGFDYWGQGTTLTVSS
VL: MDFQVQIFSFLLISASVIMSRGQIVLTQSPAIMSASLGERVTLTCTASSSVNSNYLHWYQQKPGSSPKLWIYSTSNLASGVPARFSGSGSGTSYSLTISSMEAEDAATYYCHQYHRSPLTFGAGTKLELK
modifications: (1)..(18) leader sequence; (19)..(135) heavy chain variable region; (44)..(53) CDR1; (68)..(84) CDR2; (117)..(124) CDR3; (1)..(22) leader sequence; (23)..(130) light chain variable region; (46)..(56) CDR1; (73)..(79) CDR2; (112)..(120) CDR3
For B1, the “binding to 5T4 antigen construct” value is “+” in assay [1]; “−” with rat 5T4 ectodomain Fc; “+” with human 5T4 ectodomain Fc; “+” in assay [2]; “−” with mouse 5T4 ectodomain Fc; “+” in assay [3]. The “inhibition of binding of biotinylated humanized H8 to human 5T4” value in assay [4] is listed as “not observed”.

These data come from patent US20070231333A1, “ANTI-5T4 ANTIBODIES AND USES THEREOF” (Wyeth, priority 2006, published 2007).
